Literature values in publication PMC7539009.

Molecular target: VPS29 (Homo sapiens) (UniProt Q9UBQ0)
Test: ITC

- Kd: 20 µM
Substance: TBC1D5 132-158 (from UniProt Q92609)
